Measurements published in patent US20060024313A1, “Agents that disrupt dimer formation in DPP-IV family of prolyl dipeptidases” (priority 2004, published 2006).
Residue numbers refer to the chain shown, from its start. Names and notes keep the numbering of the source. Values joined by “and” are separate entries in the source; they are usually repeats but may differ in a detail not shown here. Equal values may be shown once. “Also recorded” adds a separate entry of the source. Marks after values point to notes of the source that are not given here.

B1: H750A: DPP-IV mutant, H750 mutated to Ala; mixture of dimer and monomer (protein)
chain: SRKTYTLTDYLKNTYRLKLYSLRWISDHEYLYKQENNILVFNAEYGNSSVFLENSTFDEFGHSINDYSISPDGQFILLEYNYVKQWRHSYTASYDIYDLNKRQLITEERIPNNTQWVTWSPVGHKLAYVWNNDIYVKIEPNLPSYRITWTGKEDIIYNGITDWVYEEEVFSAYSALWWSPNGTFLAYAQFNDTEVPLIEYSFYSDESLQYPKTVRVPYPKAGAVNPTVKFFVVNTDSLSSVTNATSIQITAPASMLIGDHYLCDVTWATQERISLQWLRRIQNYSVMDICDYDESSGRWNCLVARQHIEMSTTGWVGRFRPSEPHFTLDGNSFYKIISNEEGYRHICYFQIDKKDCTFITKGTWEVIGIEALTSDYLYYISNEYKGMPGGRNLYKIQLSDYTKVTCLSCELNPERCQYYSVSFSKEAKYYQLRCSGPGLPLYTLHSSVNDKGLRVLEDNSALDKMLQNVQMPSKKLDFIILNETKFWYQMILPPHFDKSKKYPLLLDVYAGPCSQKADTVFRLNWATYLASTENIIVASFDGRGSGYQGDKIMHAINRRLGTFEVEDQIEAARQFSKMGFVDNKRIAIWGWSYGGYVTSMVLGSGSGVFKCGIAVAPVSRWEYYDSVYTERYMGLPTPEDNLDHYRNSTVMSRAENFKQVEYLLIHGTADDNVHFQQSAQISKALVDVGVDFQAMWYTDEDHGIASSTAHQAIYTHMSHFIKQCFSLP
B2: H750E: DPP-IV mutant, H750 mutated to Glu; monomer (protein)
chain: B1 chain with A712E
B3: H750A monomer: monomer of H750A DPP-IV separated by gel filtration (protein)
chain: B1 chain
B4: H750A dimer: dimer of H750A DPP-IV separated by gel filtration (protein)
chain: B1 chain
B5: Y248A: DPP-IV propeller loop mutant, Y248 substituted with Alanine (protein)
chain: B1 chain with Y210A, A712H
B6: F713R: DPP-IV mutant, F713 substituted with Arginine (protein)
chain: B1 chain with F675R, A712H

Assays:
DPP-IV [1] = assay: Dilution experiment (specific activity after two-fold dilutions); format: biochemical, human; details: 200 nM to 1.6 nM enzyme, 16 hours at 25° C., 10 uM H-Gly-Pro-pNA
Protocol: Enzyme concentrations ranging from 200 nM to 1.6 nM were used in the dilution experiments. The experiments were carried out with consecutive two-fold dilutions in PBS containing 0.1% BSA and 1 mM DTT (dithiothreitol). The solution after dilution was incubated at 25° C. for 16 hours to ensure attainment of dimer-monomer equilibrium. The reaction was initiated by adding the substrate H-Gly-Pro-pNA at a final concentration of 10 uM for both wild type DPP-IV and H750A proteins. The initial rate of the reaction was recorded and converted to specific activity.

[2] = Analytical ultracentrifugation (AUC): sedimentation velocity and equilibrium; format: physicochemical; details: for quaternary structure (subunit composition) by sedimentation velocity: High salt buffer (0.5 M sodium sulfate); for quaternary structure (monomer/dimer) by AUC: PBS buffer where stated; for Stokes' radius (Rs): sedimentation velocity experiments
Protocol: Buffer was changed using an Amicon device and DPP-IV proteins were allowed to equilibrate for at least four hours or longer as indicated in the text at 25° C. after buffer changes. The sedimentation coefficients (S) of the enzyme were estimated by a Beckman-Coulter XL-A analytical ultracentrifuge with an An60Ti rotor as described (25). Sedimentation velocity analysis was performed at 40,000 rpm at 25° C. with standard double sector aluminum centerpieces. The UV absorption of the cells was scanned every 5 min for 4 hours. Sedimentation equilibrium was performed at 20° C. with six-channel open centerpieces and then centrifuged at 12,000 rpm for 12 hours. The data from both sedimentation velocity and sedimentation experiments were analyzed with the SedFit version 8.7 program to obtain molecular weights and sedimentation coefficients (25). Sednterp version 1.07 program is used to obtain solvent density, viscosity, Stokes' radius (Rs) and anhydrous frictional ratio (f/fo).

DPP-IV [3] = assay: Kinetic constant measurements with chromogenic substrate H-Gly-Pro-pNA; format: biochemical, human; details: for AUC analysis or catalytic activities in low salt buffer: low salt buffer compared to PBS buffer (data not shown)
Protocol: To measure the kinetic parameters, the chromogenic substrate H-Gly-Pro-pNA was utilized to initiate the reaction, which was monitored at OD 405 nm as a function of time (21). […] The initial rate was measured with less than 10% substrate depletion for the first 10 to 300 seconds. The steady-state parameters, kcat and Km, were determined from initial velocity measurements at 0.5 to 5 Km of the substrate concentrations. Lineweaver-Burk plots were analyzed using non-linear regression of the Michaelis-Menten equation. Correlation coefficients better than 0.99 were obtained throughout.

[4] = Size exclusion chromatography (gel filtration, Superdex 200); format: physicochemical; details: gel filtration experiments; PBS buffer
Protocol: Chemical crosslinking in intact cells was conducted as described (24). Size exclusion chromatography was conducted at 4° C. Purified proteins (0.5 ml at a concentration of 5 uM) were applied to a Superdex 200 10/30 column (10×300-310 mm) pre-equilibrated with PBS. The sample was eluted with the same buffer at 0.3 ml/min and 0.25 ml fractions were collected. The Superdex 200 10/30 column was calibrated with the Stokes Radii of ferritin (6.1 nm), catalase (5.22 nm), aldolase (4.81 nm), albumin (3.55 nm), ovalbumin (3.05 nm) and chymotrypsinogen A (2.09 nm) from Amersham-Pharmacia.

[5] = High salt buffer, substrate H-Gly-Pro-pNA
[6] = PBS buffer, substrate H-Gly-Pro-pNA
[7] = compared with wild type rDPP-IV
[8] = values in text, monomeric mutants

Row | Molecule | specific activity on dilution (DPP-IV [1]) | quaternary structure (subunit composition) by sedimentation velocity [2] | quaternary structure (monomer/dimer) by AUC [2] | subunit composition of separated dimer and monomer after incubation ([2]; room temperature for up to 48 hours, after gel filtration) | Km (DPP-IV [3]; [5]) | kcat (DPP-IV [3]; [5]) | Km (DPP-IV [3]; [6]) | kcat (DPP-IV [3]; [6]) | decrease in kcat (DPP-IV [3]; [7]) | AUC analysis or catalytic activities in low salt buffer (DPP-IV [3]) | Stokes' radius (Rs) [4] | Sedimentation coefficient (s20, w) ([2]; High salt buffer) | Anhydrous frictional ratio (f/fo) ([2]; PBS buffer) | Sedimentation coefficient (s20, w) ([2]; PBS buffer) | Stokes' radius (Rs) ([2]; High salt buffer) | Stokes' radius (Rs) ([2]; PBS buffer) | increase in Km (DPP-IV [3]; [7]) | Km (DPP-IV [3]; [8]) | kcat (DPP-IV [3]; [8])
1 | B1 | constant | mixture of dimer-monomer | mixture of DPP-IV dimer and monomer | maintain their subunit compositions | 125 µM | 16 s⁻¹ | 77 µM | 31 s⁻¹ | about 3 fold | no differences | 5.7 nm and 4.6 nm |  |  |  |  |  |  |  | 
2 | B2 |  | monomer | consists only of monomer; also recorded: nearly exclusive monomers |  | 1090 µM | 2.1 s⁻¹ | 956 µM | 2.6 s⁻¹ | 30 fold | no differences | 4.6 nm and 4.6^a nm | 3.3 S | 1.3 | 5.5 S | 3.7^b nm | 4.0^b nm | 10 fold |  | 
3 | B3 |  |  |  |  |  |  | 64 µM | 1.4 s⁻¹ | 60 fold |  | 4.6^a nm | 3.3 S | 1.3 | 5.5 S | 3.7^b nm | 4.1^b nm |  |  | 
4 | B4 |  |  |  |  |  |  | 79 µM | 73 s⁻¹ |  |  | 5.7^a nm | 5.0 S | 1.4 | 8.5 S and 8.4 S | 4.9^b nm | 5.1^b nm |  |  | 
5 | B5 |  |  | resulted in monomers; also recorded: monomer |  |  |  |  |  |  |  |  |  |  |  |  |  |  | 7 µM | 0.01 S^−1
6 | B6 |  |  | monomeric DPP-IV; also recorded: monomers |  |  |  |  |  |  |  |  |  |  |  |  |  |  | 784 µM | 2.3 S^−1
